In publication PMC6978647:
Where two headings read alike, the source gives them in different places.

Key:
[1] = biological target: aeBlue chromoprotein (Actinia equina); assay: SEC
[2] = biological target: aeBlue chromoprotein (Actinia equina); assay: SEC; remark: listed apart in the source

aeBlue chromoprotein (natural protein) was tested, and the stoichiometry N [1] was 3.84 subunits and the stoichiometry N [2] was 4.45 subunits.
